The values below come from the supplement of paper PMC10567573.

± gives the standard deviation.

This series is described as follows: protein stability index of a GFP-peptide fusion (GPS, HEK-293T) (PSI 1-6); higher = more stable. To be noted: c terminus: a fixed tail appended.
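Further: 24-mer peptide tiles fused after GFP, lentivirally expressed, FACS-sorted into six equal bins by GFP/DsRed ratio, decoded by Illumina sequencing, PSI is the read-weighted mean bin number.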

Turning to KMTLTQVSTWFANARRRLKKENKM [IRX6], the protein stability index runs as follows: (treatment: DMSO) 2.83 ± 0.29; (treatment: MLN4924 1 uM, 8 h) 3.02 ± 0.23.
Consider KNSLFPSPISSISPGLHSFTDHQR [KCNK9], for which the protein stability index runs as follows: (treatment: DMSO) 3.3 ± 0.25; (treatment: MLN4924 1 uM, 8 h) 3.27 ± 0.38.
The like results for KPANILLDAHYHVKISDFGLAKCN [RIPK4] were, in that order, 2.33 ± 0.22 and 2.49 ± 0.23.
With KPISTKSQFLKHQQTHNIEKAHEC [ZNF649], the protein stability index runs as follows: (treatment: DMSO) 4.48 ± 0.27; (treatment: MLN4924 1 uM, 8 h) 4.41 ± 0.16.
Taken in the same sequence, the figures for KPIVPTDGKRVIVVFHCEFSSERG [CDC25A] were 2.64 ± 0.72 and 2.33 ± 0.28.
Taken in the same sequence, the figures for KPSENHPLHNSGLLSLDPVQDKTP [MED27] were 4.984 ± 0.04 and 5.02 ± 0.22.
Consider KQPLRKYVTPSDFDQLKQFLTFDK [EFHC1], for which the protein stability index is, setting by setting: (treatment: DMSO) 2.94 ± 0.18; (treatment: MLN4924 1 uM, 8 h) 3.02 ± 0.17.
With KRFASLSRFVETLVVADDKMAAFH [ADAMTS4], the protein stability index is 2.25 ± 0.52 (treatment: DMSO) and 2.06 ± 0.58 (treatment: MLN4924 1 uM, 8 h).
The sequence KSSAQGPIPWFLPESRSLPSSPLR [PPEF2] displayed a protein stability index (treatment: DMSO) of 3.56 ± 0.53 and a protein stability index (treatment: MLN4924 1 uM, 8 h) of 3.56 ± 0.21.
Taken in the same sequence, the figures for KSTSKYIYQTLFLNGENSDIKICA [GMCL1] were 2.06 ± 0.65 and 3.41 ± 1.3.
As to KTQEHTPTPDDHVFRWLAYSYAST [CPXM2], the protein stability index worked out at 2.14 ± 0.34 (treatment: DMSO) and 2.2 ± 0.3 (treatment: MLN4924 1 uM, 8 h).
As for KTSQLSYYYMGFYIHSCPKMKYKG [ATE1], the protein stability index (treatment: DMSO) came to 2.47 ± 1.2 and the protein stability index (treatment: MLN4924 1 uM, 8 h) is 2.25 ± 0.66.
On to KVIERGERLDELQDKSESLSDNAT [VAMP4], for which the protein stability index was 5.38 ± 0.13 (treatment: DMSO) and 5.33 ± 0.18 (treatment: MLN4924 1 uM, 8 h).
Taken in the same sequence, the figures for KWFGRKRTLSAFLCLGGLACLIVM [SLC22A15] were 5.07 ± 0.21 and 5.17 ± 0.18.
Taken in the same sequence, the figures for KWRKVGRSLQRGCRALRDPALDSL [TRADD] were 2.19 ± 0.16 and 2.54 ± 0.13.
In the case of KYNSARADFEQKMLDSALRFQAME [FCHO1], the protein stability index worked out at 3.5 ± 0.074 (treatment: DMSO) and 3.48 ± 0.27 (treatment: MLN4924 1 uM, 8 h).
LAESEFESAAFSQGSRSGVSGGSR [PHTF1] yielded a protein stability index (treatment: DMSO) of 4.83 ± 0.3 and a protein stability index (treatment: MLN4924 1 uM, 8 h) of 4.93 ± 0.32.
The like results for LAKALLKRTAQAIEPYITNFFNQV [PDS5B] were, in that order, 2.58 ± 0.71 and 2.7 ± 0.72.
Taken in the same sequence, the figures for LARRRRRRQARREAEADKPRRLGR [NOP53] were 4.63 ± 0.093 and 4.75 ± 0.42.
For the sequence LASRIRSNKKMLLLVGGLPPGPDR [KLHL14], the protein stability index was determined as 2.32 ± 0.17 (treatment: DMSO) and 2.34 ± 0.42 (treatment: MLN4924 1 uM, 8 h).
On to LCLGGLACLIVMFLPEKKDTGVFA [SLC22A15], for which the protein stability index was 3.44 ± 0.26 (treatment: DMSO) and 3.08 ± 0.67 (treatment: MLN4924 1 uM, 8 h).
The like results for LDEGMQIPSTQFDAAHPTNVQRLA [CTNNB1] were, in that order, 4.73 ± 0.12 and 4.7 ± 0.2.
The like results for LDLILAILALELICSLICLLIYTV [TMEM192] were, in that order, 2.89 ± 0.55 and 3 ± 0.5.
Taken in the same sequence, the figures for LDPAYTTLEFENVQVLTMGNDTSP [HNF4A] were 5.58 ± 0.15 and 5.46 ± 0.18.
In the case of LDVDTAAGGFQQRQGLKYCLPLTF [FBXO3], the protein stability index by setting is: (treatment: DMSO) 2.42 ± 0.19; (treatment: MLN4924 1 uM, 8 h) 2.22 ± 0.45.
Taken in the same sequence, the figures for LEERLQLQFEAEMARLQEEHGDQL [MTUS2] were 5.4 ± 0.32 and 5.13 ± 0.17.
The like results for LEPDEDPLCMLLLIDHLALRARNY [TCF25] were, in that order, 2.54 ± 0.32 and 2.37 ± 0.23.
Taken in the same sequence, the figures for LERNPNGVADGVIKSVLWQTLQAL [CDKL4] were 2.28 ± 0.94 and 2.56 ± 1.1.
With LESQVQKDGVADSTVISSMPCLLM [C18orf25], the protein stability index was determined as 3.39 ± 0.25 (treatment: DMSO) and 3.54 ± 0.27 (treatment: MLN4924 1 uM, 8 h).
Turning to LEVNKPKNRYANVIAYDHSRVLLS [PTPRD], the protein stability index is 2.54 ± 0.31 (treatment: DMSO) and 2.71 ± 0.21 (treatment: MLN4924 1 uM, 8 h).
Regarding LFCDVTLTAQGQQFHCHKAVLASC [KLHL14], the protein stability index is 2.66 ± 0.55 (treatment: DMSO) and 2.71 ± 0.57 (treatment: MLN4924 1 uM, 8 h).
Consider LFEEEDHVKKLQQKVATLEKRNRQ [CCDC3], for which the protein stability index reads like this: (treatment: DMSO) 4.46 ± 0.29; (treatment: MLN4924 1 uM, 8 h) 4.68 ± 0.23.
Taken in the same sequence, the figures for LFFIDGSTPSDNIVRRFLNICENT [CDC14A] were 2.37 ± 0.17 and 2.22 ± 0.24.
Taken in the same sequence, the figures for LFLPCLLCYPPAKGCLKLCRRCYD [SPRY1] were 2.36 ± 0.19 and 2.45 ± 0.62.
The like results for LGLKDKEGYTSFWNDCISSGLRGG [GOLPH3L] were, in that order, 2.65 ± 0.59 and 2.83 ± 0.31.
With LGLTQNPEGQKVLFVTFLLIYMVT [OR4A15], the protein stability index is 2.75 ± 0.66 (treatment: DMSO) and 3.33 ± 1.1 (treatment: MLN4924 1 uM, 8 h).
